Laboratory results: patent publication US20210238262A1 (HENRY M JACKSON FOUNDATION FOR THE ADVANCEMENT OF MILITARY …, published 2021)
Residue numbers refer to the chain shown, from its start.

B1: MZ54 (antibody, V domains shown)
VH: EVQLVESGGGLVKPGGSLRLSCSASGFNFRDFYMGWVRQAPGKGLQWVSHIGDSGGAIYYTDSVEGRFSISRDNAKNSLYLQMNSLRVEDTAIYYCVCAGGGRTDYWGQGTLVTVSS
VL: DIVMTQSPSSLSASVGDRVTITCQATQDINIYLNWYQQKPGQAPKLLIYDASRLETGVPSRFSGRGSGTDFTFTISSLQPEDFGTYYCQHYYTVPRTFGQGTKVESRR
B2: MZ20 (antibody, V domains shown)
VH: EVQVVESGGGLVKPGGSLRLSCAASGFTFSHFYMTWIRQAPGKGLESISYIGGTGSPTYYADSVVGRFTISRDNAKNSVYLEMNSLRAEDTAIYYCVRAGGARIENWGQGTLVIVSS
VL: DIVMTQSPSSLSASVGDRVTITCQASHDINIYLNWYQQRPGKAPKLLIYDASRLETGVPSRFSGTGSGTDFTFTISNLQPEDFATYFCQHYYTLPRTFGQGTKVDIKR
B3: MZ56 (antibody, V domains shown)
VH: EVQLVESGGDLVQPGGSLRLSCAASGFTFSNYAMHWVRQAPGKGLESVSAIGSNGDSIFYASSVKGRFTISRDNSKNTLYLQMGSLRADDMAVYFCARGWYYYDSRAYWYFDLWGRGTLVTVSS
VL: QPVLTQPASVSGSPGQSITISCTGTTSDVDDYNHVSWYQQYPGKAPRVMLYDVTKRPSGVPDRFSGSKSGNTASLTISGLQSEDEADYYCCSFADSHAIFGGGTKVTVLG
B4: MZ4 (antibody, V domains shown)
VH: QVHLQESGPGLVRPSETLSLTCTVSDGSISSYYWSWIRQPPGKGLEWIGSIYYTGSTNYNPSLKSRVTMSVDTSKNQFSLRLNSVTAADTAMYYCAGLDRYSWNEGGDHWGQGILVSVSS
VL: QPVLTQPPSASGTPGQRVSISCSGSRSNLGKNTVNWYQQLPGTAPKLLIYNHSRRPSGVPERFSGSKSGTSASLAISGLQSEDEADYFCAAWDDSLNGLYVFGTGTKVTVLR
notes: also called MHRP ZIKV-1004
B5: MZ1 (antibody, V domains shown)
VH: QVQLQESGPGLVKSSETLSLSCTVSGASISNFYWSWVRQPPGKGLEWMGSIYYTGTITYNPSLKSRLTMSVDTSKNQFSLKLNSVTAADTAVYSCAGLDRFNWNDEGDCWGQGTLVTVFS
VL: B4 VL with P2S, S19T, K31R, T43V, N51S, H52N, S53N, E61D, G69D, R112G
B6: rhMZ107-B (antibody, V domains shown)
VH: QVQLQESGPGLVKPSETLSLTCAVSGYSISSGYYWGWIRQPPGKGLEYIGYISGSSGSTYYNPSLKSRVTISKDTSKNQFSLKLSSVTAADTAVYYCARRDRVGSYPYYYGLDSWGQGVLVTVSS
VL: QSVLTQPPSLSASPGASARLPCTLSSDLSVGSKNMYWYQQKPGSAPRLFLYYYSDSDKQLGPGVPNRVSGSKETSSNTAFLLISGLQPEDEADYYCQVYDGSANDVFGSGTKLTVLG
B7: rhMZ104-D (antibody, V domains shown)
VH: EVQLVESGGGLAKPGGSLRLSCAASGFTFSDYYMDWVRQAPGKGLEWVSRISNGGGSTWYADSVKGRFTISRENAKNTLYLQMNSLRAEDTAVYYCARERYCSGGVCYAGTKYFDYWGQGVLVTVSS
VL: B6 VL with S2P, G101S, D105W, S109G, K112R
B8: rhMZ101-B (antibody, V domains shown)
VH: EVQLVESGGGLAKPGGSLRLSCAASGFSFSDYYMYWVRQAPGKGLEWVSGISYTGGSTYYADSVKGRFTISRENAKNTLYLQMDSLRAEDTAVYYCARVLYSGSYYYFDYWGQGVLVTVSS
VL: B6 VL with L82V, G101S, D105I
B9: rhMZ124-D (antibody, V domains shown)
VH: QVQLQESGPGLVKPSETLSLTCAVSGDSISSGYYWGWIRQSPGRGLESFGFISGSGGTTYYNPSLKTRVTISKDTSKNQFSLKLSSVTAADTAVYYCARLGHPRGIAAGGVDYWGQGVLVTVSS
VL: QSALTQPPSLSASPGASARLPCTLSSDFSVGNKNMYWYQQKPGSAPGLFLYFYSDSDNQLGPGVPNRVSGSKEASSNTAFLLISGLQPEDEADYYCQVYDRAANILFGGGTRLTVLG
B10: rhMZ134-B (antibody, V domains shown)
VH: EVQLVESGGGLAKPGGSLRLSCAASGFTFSDYYMDWVRQAPGKGLEWVSRISNGGGSTWYADSVKGRFTISRENAKNTLYLQMNSLRAEDTAVYYCARGPEYCSSTYCSSAYCTGSGCYVDYGLDSWGQGVVVTVSS
VL: SYELTQPPSVSVSPGQMARITCGGDNIGSKNVQWYQQKPAQAPVLVIYADSERPSGIPERFSGSNSGNTATLTISGVEAGDEADYYCQVWDSSSDHVLFGGGTRLTVLG
B11: rhMZ121-A (antibody, V domains shown)
VH: QVQLQESGPGLVKPSETLSLTCAVSGYSISSGYYWGWIRQPPGKGLEYIGYISGSSGSTYYNPSLKSRVTISKDTSKNQFSLKLSSVTAADTAVYYCARGNYYSGSYYLFWGQGVLVTVSS
VL: B10 VL with M17T, I27L, N31Y, Q33H, A49Y, E52D, N65K, V97W, L98V
B12: rhMZ103-A (antibody, V domains shown)
VH: QVQLQESGPGLVKPSETLSLTCAVSGGSISGGYDWSWIRQPPGKGLEWIGYIYGSSGSTNYNPSLKNRVTISKDTSKNQFSLKLSSVTAADTAVYYCARPAYYEDDYGYYYTTPIFDYWGQGVLVTVSS
VL: QSVLTQPPSASGAPGQSVTISCSGSSSNIGSNYVYWYQQLPGTAPKLLIYYSNQRPSGVPDRFSGSKSGTSASLAITGLRSEDEADYYCAAWDNSLSSVLFGGGTRLTVLG
B13: rhMZ123-A (antibody, V domains shown)
VH: QLVQSGAEVKRPGESLRISCKTSGYSFTSYWISWVRQMPGKGLEWMGMIYPGDSDTRYSPSFQGQVTISADKSISTAYLQWSSLKASDTATYYCAKVDSSGWTNYFDYWGQGVLVTVSS
VL: QSALTQPPSVSKSLGQSVTISCTGTSSDIGGYNGVSWYQQHSGTAPRLLIYDVSKRPSGVSDRFSGSKSGNTASLTISGLQAEDEADYYCCSYRSGSTYIFGAGTRLTVLG
B14: rhMZ133-C (antibody, V domains shown)
VH: EVQLVESGGGLVQPGGSLRLSCAASGFTFSDYYMSWVRQAPGKGPEWVGFIRNKANGGTAEYAASVKGRFTVSRDDSKSIASLQMNSLKTEDTAVYYCAKHYCTGSGCYGAGLDSWGQGVVVTVSS
VL: QSVLTQPPSVSKSLGQSVTISCTGTSSDIGGSNDVSWYQQHPGTAPRLLIYNVSKRPSGVSDRFSGSKSGNTASLTISGLQAEDEADYYCCSYRSGSTLFGGGTRLTVLG
B15: rhMZ100-C (antibody, V domains shown)
VH: EVQLVESGGGLVQPGGSLRLSCAASGFTFSSDGMSWVRQAPGKGLEWVSYISSGGATTYYADSVKGRFTISRDNSKNTLSLQMNSLRGEDTAVYYCAKDITAPGRNGLDSWGQGVVVTVSS
VL: QSVLTQPPSLSASPGASARLPCTLSSDLNVGTKNMYWYQQKPGSAPRLFLYYYSDSDKQLGPGVPNRVSGSKETSSNTAFLLISGLQPEDEADYYCQVYDNSARVFGGGTRLTVLG
B16: rhMZ119-D (antibody, V domains shown)
VH: EVQLVQSGAEVKRPGESLKISCKTSGYSFTSYWISWVRQMPGKGLEWMGAIDPSDSDTRYSPSFQGQVTISADKSISTAYLQWSSLKASDSATYYCAKEGIAARSLDVWGRGVLVTVSS
VL: SYELTQPPSVSVSPGQTARITCSGDALPKKYAYWFQQKPGQSPVLIIYEDSKRPSGIPERFSGSSSGTVATLTISGAQVEDEADYYCYSTDSSGYHGLFGGGTRLTVLG

Biological target: T1, Recombinant DENV-2 sE (1-396) from strain 16681-PDK53 with C-terminal AviTag and poly-histidine tags (Dengue virus serotype 2 strain …, UniProt P29991 281-676, biotinylated on the AviTag for BLI)
T1 construct: Produced in Expi293F cells; biotinylated for BLI; also called DENV-2 E
Test: ELISA on DENV-2 E

Binder	binding result
B1	binds
B2	binds
B3	binds
B4	binds
B5	binds

Biological target: T1, Recombinant DENV-2 sE (1-396) from …
Test: BLI and ELISA on DENV-2 E glycoprotein

Binder	binding result
B6	no binding
B7	no binding
B8	no binding
B9	no binding
B10	no binding
B11	no binding
B12	no binding
B13	no binding
B14	no binding
B15	no binding
B16	no binding

Biological target: ZIKV PR (Puerto Rican strain, PRVABC59) virus (Zika virus strain PRVABC59)
Test: cell-based or functional assay

Binder	micro-neutralization (MN50) in Vero cells, IC50
B10	0.0038 mg/L

Biological target: ZIKV H/PF/2013 reporter virus particle with E mutant (D67N, A69T) (Zika virus strain H/PF/2013)
Test: cell-based or functional assay

Binder	neutralization in the reporter virus particle (RVP) assay, mutant against wild-type ZIKV H/PF/2013
B10	10 fold
B12	5 fold
B14	2 fold

Biological target: DENV-2 (S16803) virus (Dengue virus serotype 2 strain S16803)
Test: cell-based or functional assay

Binder	flow-based neutralization assay using human monocytes (FlowNT), IC50
B4	0.0209 mg/L

Biological target: Whole purified ZIKV (ZIKV/Brazil/2015) virions (Zika virus, ZIKV/Brazil/2015)
Test: cell-based or functional assay

Binder	FlowNT50 neutralization, IC50	FlowNT50 neutralization, U937-DC-SIGN cells, IC50	flow-based neutralization assay using human monocytes (FlowNT), IC50
B6	1 to 3 mg/L	–	–
B10	–	0.022 mg/L	–
B12	1 to 3 mg/L	–	–
B4	–	–	0.0083 mg/L
B15	1 to 3 mg/L	–	–
B16	–	0.031 mg/L	–
